From patent US20240400708A1
Changes are numbered by the printed parent chain. Numbers in names are those of the source.

B1: feline IgG1a mutant ID No. 291: S252Y, S428Y, Q311W, D312P, L314K (antibody, part only; not given: Variable domains, not shown: another chain or arm of the molecule; small tags and cut ends)
constant: ASTTAPSVFPLAPSCGTTSGATVALACLVLGYFPEPVTVSWNSGALTSGVHTFPAVLQASGLYSLSSMVTVPSSRWLSDTFTCNVAHPPSNTKVDKTVRKTDHPPGPKPCDCPKCPPPEMLGGPSIFIFPPKPKDTLYISRTPEVTCLVVDLGPDDSDVQITWFVDNTQVYTAKTSPREEQFNSTYRVVSVLPILHWPWKKGKEFKCKVNSKSLPSPIERTISKAKGQPHEPQVYVLPPAQEELSRNKVSVTCLIKSFHPPDIAVEWEITGQPEPENNYRTTPPQLDSDGTYFVYSKLSVDRSHWQRGNTYTCSVYHEALHSHHTQKSLTQSPGK
B2: feline IgG1a mutant ID No. 339: S252Y, S428M, S434F, P247L (antibody, part only; not given: Variable domains, not shown: another chain or arm of the molecule)
constant: B1 constant with P133L, W197Q, P198D, K200L, Y316M, S322F
B3: feline IgG1a mutant ID No. 310: P247V, T250Q, S252H (antibody, part only; not given: variable domains and light chain, not shown: another chain or arm of the molecule; small tags and cut ends)
constant: B1 constant with P133V, T136Q, Y138H, W197Q, P198D, K200L, Y316S
B4: feline IgG1a mutant ID No. 332: S428Y, D312P, S434Y, Q311R, L314K (antibody, part only; not given: Variable domains, not shown: another chain or arm of the molecule; small tags and cut ends)
constant: B1 constant with Y138S, W197R, S322Y
B5: feline IgG1a mutant ID No. 294: S252Y, S428Y, Q311W, L314K (antibody, part only; not given: variable domains and light chain, not shown: another chain or arm of the molecule; small tags and cut ends)
constant: B1 constant with P198D
B6: feline IgG1a mutant ID No. 335: T250Q, S252H (antibody, part only; not given: Variable domains, not shown: another chain or arm of the molecule)
constant: B1 constant with T136Q, Y138H, W197Q, P198D, K200L, Y316S
B7: feline IgG1a mutant ID No. 276: S252R, S434R, Q311W (antibody, part only; not given: variable domains and light chain, not shown: another chain or arm of the molecule)
constant: B1 constant with Y138R, P198D, K200L, Y316S, S322R
B8: feline IgG1a mutant ID No. 293: S252Y, S428Y, Q311W, D312P, S434Y (antibody, part only; not given: Variable domains, not shown: another chain or arm of the molecule; small tags and cut ends)
constant: B1 constant with K200L, S322Y
B9: feline IgG1a mutant ID No. 299: S428Y, Q311W, D312P, L314K, S434Y (antibody, part only; not given: variable domains and light chain, not shown: another chain or arm of the molecule)
constant: B1 constant with Y138S, S322Y
B10: feline IgG1a mutant ID No. 289: S252Y, S428Y, L314K, S434Y (antibody, part only; not given: Variable domains, not shown: another chain or arm of the molecule)
constant: B1 constant with W197Q, P198D, S322Y
B11: feline IgG1a mutant ID No. 343: S252Y, S428M, S434F, D399M (antibody, part only; not given: Variable domains, not shown: another chain or arm of the molecule; small tags and cut ends)
constant: B1 constant with W197Q, P198D, K200L, D287M, Y316M, S322F
B12: feline IgG1a mutant ID No. 333: S428Y, D312P, S434Y, Q311Y, L314K (antibody, part only; not given: Variable domains, not shown: another chain or arm of the molecule; small tags and cut ends)
constant: B1 constant with Y138S, W197Y, S322Y
B13: feline IgG1a mutant ID No. 334: S428Y, D312P, S434Y, T250Q, S252H (antibody, part only; not given: Variable domains, not shown: another chain or arm of the molecule)
constant: B1 constant with T136Q, Y138H, W197Q, K200L, S322Y
B14: feline IgG1a mutant ID No. 345: S252Y, S428M, S434F, E430I (antibody, part only; not given: Variable domains, not shown: another chain or arm of the molecule)
constant: B1 constant with W197Q, P198D, K200L, Y316M, E318I, S322F
B15: feline IgG1a mutant ID No. 336: S252Y, S428M, S434F, A431K (antibody, part only; not given: Variable domains, not shown: another chain or arm of the molecule)
constant: B1 constant with W197Q, P198D, K200L, Y316M, A319K, S322F
B16: feline IgG1a mutant ID No. 292: S252Y, S428Y, Q311W, D312P, L314K, S434Y (antibody, part only; not given: variable domains and light chain, not shown: another chain or arm of the molecule; small tags and cut ends)
constant: B1 constant with S322Y
B17: feline IgG1a mutant ID No. 338: S252Y, S428M, S434F, D399T (antibody, part only; not given: variable domains and light chain, not shown: another chain or arm of the molecule)
constant: B1 constant with W197Q, P198D, K200L, D287T, Y316M, S322F
B18: feline IgG1a mutant ID No. 324: S428Y, D312P, S434Y, D399M, T403R (antibody, part only; not given: Variable domains, not shown: another chain or arm of the molecule)
constant: B1 constant with Y138S, W197Q, K200L, D287M, T291R, S322Y
B19: feline IgG1a mutant ID No. 290: S252Y, S428Y, Q311W, D312P (antibody, part only; not given: Variable domains, not shown: another chain or arm of the molecule; small tags and cut ends)
constant: B1 constant with K200L
B20: feline IgG1a mutant ID No. 283: S252Y, Q311W, D312P, L314K, S434Y (antibody, part only; not given: Variable domains, not shown: another chain or arm of the molecule)
constant: B1 constant with Y316S, S322Y
B21: feline IgG1a mutant ID No. 277: S252R, S434W (antibody, part only; not given: Variable domains, not shown: another chain or arm of the molecule)
constant: B1 constant with Y138R, W197Q, P198D, K200L, Y316S, S322W
B22: feline IgG1a mutant ID No. 280: S252R, S434Y, Q311W (antibody, part only; not given: Variable domains, not shown: another chain or arm of the molecule)
constant: B1 constant with Y138R, P198D, K200L, Y316S, S322Y
B23: feline IgG1a mutant ID No. 303: A431K, S434Y (antibody, part only; not given: variable domains and light chain, not shown: another chain or arm of the molecule)
constant: B1 constant with Y138S, W197Q, P198D, K200L, Y316S, A319K, S322Y
B24: feline IgG1a mutant ID No. 282: S252Y, Q311W, D312P, L314K (antibody, part only; not given: Variable domains, not shown: another chain or arm of the molecule)
constant: B1 constant with Y316S
B25: feline IgG1a mutant ID No. 285: S252Y, Q311W, L314K, S434Y (antibody, part only; not given: Variable domains, not shown: another chain or arm of the molecule)
constant: B1 constant with P198D, Y316S, S322Y
B26: feline IgG1a mutant ID No. 297: S428Y, D312P, L314K, S434Y (antibody, part only; not given: Variable domains, not shown: another chain or arm of the molecule)
constant: B1 constant with Y138S, W197Q, S322Y
B27: feline IgG1a mutant ID No. 287: S252Y, S428Y, D312P, L314K, S434Y (antibody, part only; not given: Variable domains, not shown: another chain or arm of the molecule)
constant: B1 constant with W197Q, S322Y

The binders below were run against feline FcRn complex (FcRn-α subunit and β-microglobulin) (feline) (assay: SPR (Biacore), FcRn on SA chip, pH 7.4).

Going from B1 to B2, the Kd falls from 16700 nM to 6.73 nM (2500-fold). The second binds more tightly here.

B3 and B4 are within 1.5-fold of each other in Kd: 24.4 nM for the first, 28.6 nM for the second.

Going from B5 to B6, the Kd rises from 12.8 nM to 36.9 nM (2.9-fold).

Compared with B7, B8 is 5.1-fold lower in Kd: 14800 nM for the first, 2930 nM for the second. The second binds more tightly here.

First: B9
Second: B10
The Kd of the first is 1.7-fold lower: 79.6 nM for the first, 132 nM for the second.

First: B11
Second: B12
The Kd of the first is 2.4-fold lower: 10.9 nM for the first, 25.9 nM for the second.

Compared with B13, B14 is 1.7-fold lower in Kd: 19.9 nM for the first, 11.5 nM for the second.

Compared with B15, B16 is 370-fold higher in Kd: 7.28 nM for the first, 2720 nM for the second. The first binds more tightly here.

First: B17
Second: B18
The Kd of the first is 1.6-fold lower: 13.8 nM for the first, 21.6 nM for the second. The first binds more tightly here.

B19 and B20 are within 1.5-fold of each other in Kd: 254 nM for the first, 300 nM for the second.

First: B21
Second: B22
The Kd of the first is 1.5-fold higher: 6600 nM for the first, 4400 nM for the second. The second binds more tightly here.

Going from B23 to B24, the Kd rises from 26.3 nM to 119 nM (4.5-fold). The first binds more tightly here.

Compared with B25, B26 is 21-fold lower in Kd: 1730 nM for the first, 82.9 nM for the second.

With B27 the Kd was 127 nM.

Each binder was assayed against feline FcRn complex (FcRn-α subunit and β-microglobulin) (feline) (assay: SPR (Biacore), FcRn on SA chip, pH 6).

Compared with B1, B2 is 2400-fold lower in Kd: 39.7 nM for the first, 0.0168 nM for the second.

Compared with B3, B4 is 25-fold lower in Kd: 8.21 nM for the first, 0.332 nM for the second. The second binds more tightly here.

Going from B5 to B6, the Kd rises from 0.692 nM to 8.02 nM (12-fold). The first binds more tightly here.

Compared with B7, B8 is 27-fold lower in Kd: 28.7 nM for the first, 1.07 nM for the second. The second binds more tightly here.

B9 and B10 are within 1.5-fold of each other in Kd: 1.17 nM for the first, 0.808 nM for the second.

Compared with B11, B12 is 22-fold higher in Kd: 0.041 nM for the first, 0.908 nM for the second.

First: B13
Second: B14
The Kd of the first is 8-fold higher: 0.182 nM for the first, 0.0227 nM for the second.

First: B15
Second: B16
The Kd of the first is 110-fold lower: 0.0359 nM for the first, 4.01 nM for the second.

Compared with B17, B18 is 4.2-fold higher in Kd: 0.0272 nM for the first, 0.113 nM for the second. The first binds more tightly here.

Going from B19 to B20, the Kd falls from 3.08 nM to 1.14 nM (2.7-fold). The second binds more tightly here.

First: B21
Second: B22
The Kd of the first is 2.5-fold higher: 7.1 nM for the first, 2.87 nM for the second.

Going from B23 to B24, the Kd rises from 1.33 nM to 30 nM (23-fold).

B25 and B26 are within 1.5-fold of each other in Kd: 1.21 nM for the first, 0.898 nM for the second.

Binder B27 has a Kd of 0.633 nM.
